Test [1] concerns the target recombinant CD89 (Fc-alpha receptor, FcαRI) with C-terminal His-tag (UniProt P24071). In words: SPR.
Test [2] addresses receptor binding domain (RBD) of the SARS-CoV-2 spike protein with C-terminal 6xHis-tag (SARS-CoV-2) (UniProt P0DTC2). In words: SPR.

Data on four substances can be found in publication PMC10953500.

Chain of recombinant CD89 (Fc-alpha receptor, FcαRI) with C-terminal His-tag (P24071 22-227): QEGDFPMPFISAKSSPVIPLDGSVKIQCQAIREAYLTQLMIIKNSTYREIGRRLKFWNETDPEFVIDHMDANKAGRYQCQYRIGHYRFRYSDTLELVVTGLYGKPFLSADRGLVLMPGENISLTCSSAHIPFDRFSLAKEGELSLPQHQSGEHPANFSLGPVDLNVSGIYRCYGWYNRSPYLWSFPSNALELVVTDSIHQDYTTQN
Chain of COVA2-15 IgA1 produced in the H10-KO line co-infiltrated with GalNAc-T2 and C1GalT1 ("H10+O") (P01876 whole entry, looked up, tested part not stated): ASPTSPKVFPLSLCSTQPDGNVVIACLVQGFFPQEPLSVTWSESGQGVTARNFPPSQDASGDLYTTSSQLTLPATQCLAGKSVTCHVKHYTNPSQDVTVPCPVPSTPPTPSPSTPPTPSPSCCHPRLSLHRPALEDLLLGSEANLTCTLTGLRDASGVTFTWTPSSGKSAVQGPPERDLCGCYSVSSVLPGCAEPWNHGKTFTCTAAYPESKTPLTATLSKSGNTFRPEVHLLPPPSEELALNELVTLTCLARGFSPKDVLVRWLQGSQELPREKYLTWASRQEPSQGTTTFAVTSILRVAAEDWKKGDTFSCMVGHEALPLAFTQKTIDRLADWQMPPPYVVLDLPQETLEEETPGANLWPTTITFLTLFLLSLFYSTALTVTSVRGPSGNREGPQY
Chain of COVA2-15 IgA1 produced in N. benthamiana wildtype ("WT") (P01876 whole entry, looked up, tested part not stated): as above
Chain of COVA2-15 IgA1 produced in HEK293-6E cells ("HEK") (P01876 whole entry, looked up, tested part not stated): as above
Chain of COVA2-15 IgA1 produced in the NbP4H10 knockout line pB109-1C ("H10-KO") (P01876 whole entry, looked up): as the sequence (P01876 whole entry, looked up, tested part not stated) above

Regarding “COVA2-15 IgA1 produced in the H10-KO line co-infiltrated with GalNAc-T2 and C1GalT1 ("H10+O") (from UniProt P01876)”, the results for the Kd in test [1] and in test [2] were 31.7 nM and 1.25 nM, respectively.
For “COVA2-15 IgA1 produced in HEK293-6E cells ("HEK") (from UniProt P01876)”, in that order: 36.7 nM and 0.85 nM.
Taken in the same sequence, the figures for “COVA2-15 IgA1 produced in the NbP4H10 knockout line pB109-1C ("H10-KO") (from UniProt P01876)” were 61.3 nM and 1.31 nM.
Taken in the same sequence, the figures for “COVA2-15 IgA1 produced in N. benthamiana wildtype ("WT") (from UniProt P01876)” were 66.6 nM and 1.53 nM.
